Assay results from the supplement of paper PMC5998384.

How the values were obtained:
HeLa Kyoto [1] = assay: thermal stability score vs G1/S (z-score of summed log2 fold changes over temperatures); higher = more thermally stable than in G1/S
HeLa Kyoto [2] = assay: solubility in G1/S (NP-40 vs SDS abundance) (log2 ratio); higher = more soluble; conditions: cell cycle stage: G1/S
HeLa Kyoto [3] = assay: solubility change mitosis vs G1/S (difference of NP-40 vs SDS log2 ratios) (log2 ratio difference); higher = more soluble in mitosis
HeLa Kyoto [4] = assay: melting temperature (median over replicates), in situ; higher = more thermally stable
[5] = cell cycle stage: early G1 (4.5 h after nocodazole release)
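Throughout, for melting temperature (median over replicates), in situ: HeLa Kyoto cells synchronized by double thymidine or nocodazole block, proteins quantified by TMT10plex mass spectrometry, three independent biological replicates.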
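Throughout, for solubility change mitosis vs G1/S (difference of NP-40 vs SDS log2 ratios): synchronized HeLa Kyoto cells (double thymidine block for G1/S, nocodazole release for mitosis), protein amounts in NP-40 versus SDS lysates quantified by mass spectrometry, three biological replicates.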
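Throughout, for solubility in G1/S (NP-40 vs SDS abundance): HeLa Kyoto cells arrested at G1/S by double thymidine block, proteins quantified by TMT10plex mass spectrometry in mild NP-40 versus SDS extracts, three biological replicates.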
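Throughout, for thermal stability score vs G1/S (z-score of summed log2 fold changes over temperatures): synchronized HeLa Kyoto cells, proteins quantified by TMT10plex mass spectrometry, three biological replicates, mitosis taken 0.5 h after nocodazole release, G1/S directly after double thymidine block.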

## MTECFLPPTSSPSEHRRVEHGSGLTRTPSSEEISPTKFPGLYRTGEPSPPHDILHEPPDVVSDDEKDHGKKKGKFKKKEKRTEGYAAFQEDSSGDEAESPSKMKRSKGIHVFKKPSFSKKKEKDFKIKEKPKEEKHKEEKHKEEKHKEKKSKDLTAADVVKQWKEKKKKKKPIQEPEVPQIDVPNLKPIFGIPLADAVERTMMYDGIRLPAVFRECIDYVEKYGMKCEGIYRVSGIKSKVDELKAAYDREESTNLEDYEPNTVASLLKQYLRDLPENLLTKELMPRFEEACGRTTETEKVQEFQRLLKELPECNYLLISWLIVHMDHVIAKELETKMNIQNISIVLSPTVQISNRVLYVFFTHVQELFGNVVLKQVMKPLRWSNMATMPTLPETQAGIKEEIRRQEFLLNCLHRDLQGGIKDLSKEERLWEVQRILTALKRKLREAKRQECETKIAQEIASLSKEDVSKEEMNENEEVINILLAQENEILTEQEELLAMEQFLRRQIASEKEEIERLRAEIAEIQSRQQHGRSETEEYSSESESESEDEEELQIILEDLQRQNEELEIKNNHLNQAIHEEREAIIELRVQLRLLQMQRAKAEQQAQEDEEPEWRGGAVQPPRDGVLEPKAAKEQPKAGKEPAKPSPSRDRKETSI [RALBP1]
HeLa Kyoto [1]; [5]
  thermal stability score: 0.156
HeLa Kyoto [1]; cell cycle stage: mitosis
  thermal stability score: 0.441
HeLa Kyoto [2]
  solubility in G1/S (log2): 0.0284
HeLa Kyoto [3]
  solubility change mitosis (log2): 0.12
HeLa Kyoto [4]; cell cycle stage: G1/S
  melting temperature: 47.8 °C
HeLa Kyoto [4]; cell cycle stage: mitosis
  melting temperature: 50.4 °C

## MALRACGLIIFRRCLIPKVDNNAIEFLLLQASDGIHHWTPPKGHVEPGEDDLETALRETQEEAGIEAGQLTIIEGFKRELNYVARNKPKTVIYWLAEVKDYDVEIRLSHEHQAYRWLGLEEACQLAQFKEMKAALQEGHQFLCSIEA [NUDT2]
HeLa Kyoto [1]; [5]
  thermal stability score: -0.841
HeLa Kyoto [1]; cell cycle stage: mitosis
  thermal stability score: -1.24
HeLa Kyoto [2]
  solubility in G1/S (log2): -0.102
HeLa Kyoto [3]
  solubility change mitosis (log2): 0.0921
HeLa Kyoto [4]; cell cycle stage: G1/S
  melting temperature: 51.7 °C
HeLa Kyoto [4]; cell cycle stage: mitosis
  melting temperature: 51.9 °C

## MVSPATRKSLPKVKAMDFITSTAILPLLFGCLGVFGLFRLLQWVRGKAYLRNAVVVITGATSGLGKECAKVFYAAGAKLVLCGRNGGALEELIRELTASHATKVQTHKPYLVTFDLTDSGAIVAAAAEILQCFGYVDILVNNAGISYRGTIMDTTVDVDKRVMETNYFGPVALTKALLPSMIKRRQGHIVAISSIQGKMSIPFRSAYAASKHATQAFFDCLRAEMEQYEIEVTVISPGYIHTNLSVNAITADGSRYGVMDTTTAQGRSPVEVAQDVLAAVGKKKKDVILADLLPSLAVYLRTLAPGLFFSLMASRARKERKSKNS [DHRS7B]
HeLa Kyoto [1]; [5]
  thermal stability score: -0.951
HeLa Kyoto [1]; cell cycle stage: mitosis
  thermal stability score: -0.984
HeLa Kyoto [2]
  solubility in G1/S (log2): -0.22
HeLa Kyoto [3]
  solubility change mitosis (log2): -0.121
HeLa Kyoto [4]; cell cycle stage: G1/S
  melting temperature: 51.6 °C
HeLa Kyoto [4]; cell cycle stage: mitosis
  melting temperature: 51.4 °C

## MAAVLKPVLLGLRDAPVHGSPTGPGAWTASKLGGIPDALPTVAAPRPVCQRCGQPLALVVQVYCPLEGSPFHRLLHVFACACPGCSTGGARSWKVFRSQCLQVPEREAQDAQKQGNSLAAEDWCEGADDWGSDTEEGPSPQFTLDFGNDASSAKDVDWTARLQDLRLQDAVLGAAHPVPPGLPLFLPYYICVADEDDYRDFVNLDHAHSLLRDYQQREGIAMDQLLSQSLPNDGDEKYEKTIIKSGDQTFYKFMKRIAACQEQILRYSWSGEPLFLTCPTSEVTELPACSQCGGQRIFEFQLMPALVSMLKSANLGLSVEFGTILVYTCEKSCWPPNHQTPMEEFCIIQEDPDELLFK [PDCD2L]
HeLa Kyoto [1]; [5]
  thermal stability score: 0.0844
HeLa Kyoto [1]; cell cycle stage: mitosis
  thermal stability score: 0.849
HeLa Kyoto [2]
  solubility in G1/S (log2): 0.287
HeLa Kyoto [3]
  solubility change mitosis (log2): 0.0741
HeLa Kyoto [4]; cell cycle stage: G1/S
  melting temperature: 48.9 °C
HeLa Kyoto [4]; cell cycle stage: mitosis
  melting temperature: 49.8 °C

## MEEGGGGVRSLVPGGPVLLVLCGLLEASGGGRALPQLSDDIPFRVNWPGTEFSLPTTGVLYKEDNYVIMTTAHKEKYKCILPLVTSGDEEEEKDYKGPNPRELLEPLFKQSSCSYRIESYWTYEVCHGKHIRQYHEEKETGQKINIHEYYLGNMLAKNLLFEKEREAEEKEKSNEIPTKNIEGQMTPYYPVGMGNGTPCSLKQNRPRSSTVMYICHPESKHEILSVAEVTTCEYEVVILTPLLCSHPKYRFRASPVNDIFCQSLPGSPFKPLTLRQLEQQEEILRVPFRRNKEEDLQSTKEERFPAIHKSIAIGSQPVLTVGTTHISKLTDDQLIKEFLSGSYCFRGGVGWWKYEFCYGKHVHQYHEDKDSGKTSVVVGTWNQEEHIEWAKKNTARAYHLQDDGTQTVRMVSHFYGNGDICDITDKPRQVTVKLKCKESDSPHAVTVYMLEPHSCQYILGVESPVICKILDTADENGLLSLPN [ERLEC1]
HeLa Kyoto [1]; [5]
  thermal stability score: 1.6
HeLa Kyoto [1]; cell cycle stage: mitosis
  thermal stability score: 0.429
HeLa Kyoto [2]
  solubility in G1/S (log2): 0.0171
HeLa Kyoto [3]
  solubility change mitosis (log2): -0.0947
HeLa Kyoto [4]; cell cycle stage: G1/S
  melting temperature: 54.1 °C
HeLa Kyoto [4]; cell cycle stage: mitosis
  melting temperature: 54 °C

## MSRFPAVAGRAPRRQEEGERSRDLQEERLSAVCIADREEKGCTSQEGGTTPTFPIQKQRKKIIQAVRDNSFLIVTGNTGSGKTTQLPKYLYEAGFSQHGMIGVTQPRKVAAISVAQRVAEEMKCTLGSKVGYQVRFDDCSSKETAIKYMTDGCLLKHILGDPNLTKFSVIILDEAHERTLTTDILFGLLKKLFQEKSPNRKEHLKVVVMSATMELAKLSAFFGNCPIFDIPGRLYPVREKFCNLIGPRDRENTAYIQAIVKVTMDIHLNEMAGDILVFLTGQFEIEKSCELLFQMAESVDYDYDVQDTTLDGLLILPCYGSMTTDQQRRIFLPPPPGIRKCVISTNISATSLTIDGIRYVVDGGFVKQLNHNPRLGLDILEVVPISKSEALQRSGRAGRTSSGKCFRIYSKDFWNQCMPDHVIPEIKRTSLTSVVLTLKCLAIHDVIRFPYLDPPNERLILEALKQLYQCDAIDRSGHVTRLGLSMVEFPLPPHLTCAVIKAASLDCEDLLLPIAAMLSVENVFIRPVDPEYQKEAEQRHRELAAKAGGFNDFATLAVIFEQCKSSGAPASWCQKHWIHWRCLFSAFRVEAQLRELIRKLKQQSDFPKETFEGPKHEVLRRCLCAGYFKNVARRSVGRTFCTMDGRGSPVHIHPSSALHEQETKLEWIIFHEVLVTTKVYARIVCPIRYEWVRDLLPKLHEFNAHDLSSVARREVREDARRRWTNKENVKQLKDGISKDVLKKMQRRNDDKSISDARARFLERKQQRTQDHSDTRKETG [DHX40]
HeLa Kyoto [1]; [5]
  thermal stability score: 0.738
HeLa Kyoto [1]; cell cycle stage: mitosis
  thermal stability score: 1.62
HeLa Kyoto [2]
  solubility in G1/S (log2): -0.176
HeLa Kyoto [3]
  solubility change mitosis (log2): -0.071
HeLa Kyoto [4]; cell cycle stage: G1/S
  melting temperature: 51.7 °C
HeLa Kyoto [4]; cell cycle stage: mitosis
  melting temperature: 50.2 °C

## MSWSPSLTTQTCGAWEMKERLGTGGFGNVIRWHNQETGEQIAIKQCRQELSPRNRERWCLEIQIMRRLTHPNVVAARDVPEGMQNLAPNDLPLLAMEYCQGGDLRKYLNQFENCCGLREGAILTLLSDIASALRYLHENRIIHRDLKPENIVLQQGEQRLIHKIIDLGYAKELDQGSLCTSFVGTLQYLAPELLEQQKYTVTVDYWSFGTLAFECITGFRPFLPNWQPVQWHSKVRQKSEVDIVVSEDLNGTVKFSSSLPYPNNLNSVLAERLEKWLQLMLMWHPRQRGTDPTYGPNGCFKALDDILNLKLVHILNMVTGTIHTYPVTEDESLQSLKARIQQDTGIPEEDQELLQEAGLALIPDKPATQCISDGKLNEGHTLDMDLVFLFDNSKITYETQISPRPQPESVSCILQEPKRNLAFFQLRKVWGQVWHSIQTLKEDCNRLQQGQRAAMMNLLRNNSCLSKMKNSMASMSQQLKAKLDFFKTSIQIDLEKYSEQTEFGITSDKLLLAWREMEQAVELCGRENEVKLLVERMMALQTDIVDLQRSPMGRKQGGTLDDLEEQARELYRRLREKPRDQRTEGDSQEMVRLLLQAIQSFEKKVRVIYTQLSKTVVCKQKALELLPKVEEVVSLMNEDEKTVVRLQEKRQKELWNLLKIACSKVRGPVSGSPDSMNASRLSQPGQLMSQPSTASNSLPEPAKKSEELVAEAHNLCTLLENAIQDTVREQDQSFTALDWSWLQTEEEEHSCLEQAS [IKBKB]
HeLa Kyoto [1]; [5]
  thermal stability score: 1.13
HeLa Kyoto [1]; cell cycle stage: mitosis
  thermal stability score: 2.17
HeLa Kyoto [2]
  solubility in G1/S (log2): 0.0875
HeLa Kyoto [3]
  solubility change mitosis (log2): -0.171
HeLa Kyoto [4]; cell cycle stage: G1/S
  melting temperature: 48.3 °C
HeLa Kyoto [4]; cell cycle stage: mitosis
  melting temperature: 49.2 °C

## MTSKKLVNSVAGCADDALAGLVACNPNLQLLQGHRVALRSDLDSLKGRVALLSGGGSGHEPAHAGFIGKGMLTGVIAGAVFTSPAVGSILAAIRAVAQAGTVGTLLIVKNYTGDRLNFGLAREQARAEGIPVEMVVIGDDSAFTVLKKAGRRGLCGTVLIHKVAGALAEAGVGLEEIAKQVNVVAKAMGTLGVSLSSCSVPGSKPTFELSADEVELGLGIHGEAGVRRIKMATADEIVKLMLDHMTNTTNASHVPVQPGSSVVMMVNNLGGLSFLELGIIADATVRSLEGRGVKIARALVGTFMSALEMPGISLTLLLVDEPLLKLIDAETTAAAWPNVAAVSITGRKRSRVAPAEPQEAPDSTAAGGSASKRMALVLERVCSTLLGLEEHLNALDRAAGDGDCGTTHSRAARAIQEWLKEGPPPASPAQLLSKLSVLLLEKMGGSSGALYGLFLTAAAQPLKAKTSLPAWSAAMDAGLEAMQKYGKAAPGDRTMLDSLWAAGQELQAWKSPGADLLQVLTKAVKSAEAAAEATKNMEAGAGRASYISSARLEQPDPGAVAAAAILRAILEVLQS [TKFC]
HeLa Kyoto [1]; [5]
  thermal stability score: 1.34
HeLa Kyoto [1]; cell cycle stage: mitosis
  thermal stability score: 0.558
HeLa Kyoto [2]
  solubility in G1/S (log2): 0.321
HeLa Kyoto [3]
  solubility change mitosis (log2): -0.0666
HeLa Kyoto [4]; cell cycle stage: G1/S
  melting temperature: 54.8 °C
HeLa Kyoto [4]; cell cycle stage: mitosis
  melting temperature: 55 °C
